Measured values as given in patent publication US20110028686A1 (published 2011).

Columns and labels:
Experiment in all cases: fluorescence polarization
pP53-02 = molecular target: pP53-02
pP53-01 = molecular target: pP53-01
pP53-04 = molecular target: pP53-04
pP53-03 = molecular target: pP53-03

Kd (pP53-02): 766 nM
Kd (pP53-01): 2800 nM
Kd (pP53-04): 334 nM
Kd (pP53-03): 546 nM
B1: GST-MDM2 (other)
chain: MCNTNMSVPTDGAVTTSQIPASEQETLVRPKPLLLKLLKSVGAQKDTYTMKEVLFYLGQYIMTKRLYDEKQQHIVYCSNDLLGDLFGVPSFSVKEHRKIYTMIYRNLVVVNQQESSDSGTSVSENRCHLEGGSDQKDLVQELQEEKPSSSHLVSRPSTSSRRRAISETEENSDELSGERQRKRHKSDS
